Assay results: PMC8173106, “Modulating Enzyme Function via Dynamic Allostery within Biliverdin Reductase B” (Frontiers in Molecular Biosciences, 2021)
Changes are numbered by the printed parent chain. Names and notes keep the numbering of the source.

B1: human BLVRB (biliverdin reductase B) (Homo sapiens; S111A) (protein)
chain: MAVKKIAIFGATGQTGLTTLAQAVQAGYEVTVLVRDSSRLPSEGPRPAHVVVGDVLQAADVDKTVAGQDAVIVLLGTRNDLSPTTVMSEGARNIVAAMKAHGVDKVVACTAAFLLWDPTKVPPRLQAVTDDHIRMHKVLRESGLKYVAVMPPHIGDQPLTGAYTVTLDGRGPSRVISKHDLGHFMLRCLTTDEYDGHSTYPSHQYQ
notes: full length, 206 residues; codon-optimised, pET21b (T164S in pJ401k); N-terminal 6xHis tag removed with thrombin
B2: human BLVRB (biliverdin reductase B) (Homo sapiens; T164A) (protein)
chain: B1 chain with A111S, T164A
notes: as for B1
B3: human BLVRB (biliverdin reductase B) (Homo sapiens; T164I) (protein)
chain: B1 chain with A111S, T164I
notes: as for B1
B4: human BLVRB (biliverdin reductase B) (Homo sapiens; T164S) (protein)
chain: B1 chain with A111S, T164S
notes: as for B1
B5: human BLVRB (biliverdin reductase B) (Homo sapiens; H153A) (protein)
chain: B1 chain with A111S, H153A
notes: as for B1

The proteins below were run on Cc1cc2nc3c(=O)[nH]c(=O)nc-3n(C[C@H](O)[C@H](O)[C@H](O)COP(=O)(O)OP(=O)(O)OC[C@H]3O[C@@H](n4cnc5c(N)ncnc54)[C@H](O)[C@@H]3O)c2cc1C (assay: purified protein). Conditions: co-substrate NADPH.
Format: biochemical, Homo sapiens

Which results are given for B1?
Km: 325 ± 96 µM; kcat: 0.021 ± 0.004 s⁻¹

What does the source list for B2?
Km: 153 ± 18 µM; kcat: 0.063 ± 0.002 s⁻¹

For B3, which Km is on record?
The Km was 156 ± 18 µM.

And the kcat?
Its kcat is 0.049 ± 0.003 s⁻¹.

For B4, which Km is on record?
The Km was 127 ± 15 µM.

And the kcat?
The kcat was 0.039 ± 0.003 s⁻¹.

Which Km does the source give for B5 here?
The Km was 98 ± 11 µM.

And the kcat?
The kcat was 0.059 ± 0.003 s⁻¹.
